Measurements: patent US8198236B2, “Methods and compositions for the treatment of cancer” (Washington University, priority 2007, dated 2012)

What was measured:
LRP6 [1] = biological target: T1, LRP6 (Homo sapiens, UniProt O75581); assay: Competition for 125I-Mesd binding to cell surface LRP6
T1 construct: expressed in transfected cells; host or cells: human HT1080 cells, retroviral vector pLNCX2
Method: To examine whether Mesd binds with high affinity to most members of the LDLR family at the cell surface, we performed cell surface ligand binding experiments with cells stably transduced with LRP6 cDNA. Human HT1080 cells, which express undetectable levels of LRP6, were transduced with a viral vector alone (pLNCX2) or with vector containing LRP6 cDNA (Li, Y., Oncogene 23: 9129-9135, 2004) and used for ^125I-Mesd binding (FIG. 1A). ^125I-Mesd (5 nM) reached maximal binding after 2 hours incubation at 4° C. with LRP6-expressing HT1080 cells (FIG. 1A).
(§1) Cells (2×10^5) were seeded into 12-well dishes 1 day prior to assay. Ligand-binding buffer (minimal Eagle's medium containing 0.6% BSA with a different concentration of radioligand, 0.6 ml/well) was added to cell monolayers, in the absence or the presence of 500 nM unlabeled RAP or 500 nM unlabeled Mesd, followed with incubation for 0-4 hours at 4° C. Thereafter, overlying buffer containing unbound ligand was removed, and cell monolayers were washed and lysed in low-SDS lysis buffer (62.5 mM Tris-HCl pH 6.8, 0.2% SDS, 10% v/glycerol) and counted.
We performed binding of 5 nM ^125I-Mesd (5 nM) to cell surface LRP6 in the presence of various concentrations of excess unlabeled RAP or 500 nM unlabeled Mesd (FIG. 8B). RAP inhibited ^125I-Mesd binding in a dose-dependent manner with ˜60% inhibition achieved with 500 nM RAP, whereas the same concentration of unlabeled Mesd inhibited >90% of ^125I-Mesd binding (FIG. 8B). […] The lower affinity of RAP to cell surface LRP6 may also contribute to its lower efficiency in inhibition of Mesd binding.
In FIG. 8A, binding of ^125I-RAP (5 nM) to LRP6-transduced HT1080 cells and the control cells was carried out for 4 hours at 4° C. in the absence (total) or presence of 500 nM RAP, or 500 nM Mesd. In FIG. 8B, binding of^125I-Mesd (5 nM) to LRP6-transduced HT1080 cells was carried out for 2 hours at 4° C. in the absence (total) or presence of various concentrations of RAP or 500 nM Mesd. (C) LRP6-mediated ^125I-Mesd (5 nM) degradation was carried out for 4 hours at 37° C. in the absence or presence of 500 nM Mesd or 500 nM RAP. Values are the means of triple determinations with the s.d. indicated by error bars.
In order to investigate the binding of Mesd polypeptide and an Mesd oligopeptide to either LRP5 or LRP6, binding assays were performed using ^125I-Mesd or ^125I-DKK1 (FIG. 10).

LRP6 [2] = biological target: T1, LRP6; assay: Cell surface Myc-DKK1 binding and immunodetection on LRP6-transduced HT1080 cells; settings: 1 μM Mesd, immunofluorescence
Source text: Human DKK1 cDNA (clone MGC:868, IMAGE:3508222) was obtained from Invitrogen and subcloned into pcDNA3 (EcoRI/XbaI). To facilitate immunodetection, a c-Myc epitope was included at the C-terminus. The integrity of the subcloned DNA sequence was confirmed by DNA sequencing. Human DKK1-conditioned media were produced by transient transfection of HEK293 cells with pcDNADKK1-Myc in serum-free medium, and allowed to bind to LRP6-transduced HT1080 cells and control cells at room temperature for 60 minutes in the absence or presence of 1 μM Mesd. Cells were then fixed in 4% paraformaldehyde, labeled with anti-Myc monoclonal antibody and detected with Alexa-488 goat anti-mouse IgG. The immunofluorescence was detected by a laser-scanning confocal microscope (Olympus Fluoview 500).
(§2) RAP is a receptor antagonist for members of the LDLR family, and is able to inhibit the binding of most known ligands of the LDLR family members. DKK1 is an LRP6-specific ligand and antagonist. […] In these experiments, Serum-free conditioned medium was harvested from HEK293 cells transiently transfected with cDNA for human Myc-DKK1 and allowed to bind to LRP6-transduced HT1080 cells (B,C) and control cells (A) in the absence (A,B) or presence (C) of 1 μM Mesd. Cell-surface-bound Myc-tagged DKK proteins were fixed and detected by immunofluorescence staining with anti-Myc antibody. […]

LRP6 [3] = biological target: T1, LRP6; assay: 125I-DKK1 binding to LRP6; settings: 500 nM unlabeled, 125I-DKK1 5 nM, 3 hours at 4° C.
Method: as §1
as §2, with “antibody. (D) DKK1 binding to cell surface LRP6 is inhibited by Mesd. Binding of 125I-DKK1 (5 nM) to LRP6-transduced HT1080 cells or the control cells was carried out for 3 hours at 4° C. in the absence (total) or presence of 500 nM RAP or 500 nM Mesd.” for “antibody.”

T1 sequence (O75581 20-1613): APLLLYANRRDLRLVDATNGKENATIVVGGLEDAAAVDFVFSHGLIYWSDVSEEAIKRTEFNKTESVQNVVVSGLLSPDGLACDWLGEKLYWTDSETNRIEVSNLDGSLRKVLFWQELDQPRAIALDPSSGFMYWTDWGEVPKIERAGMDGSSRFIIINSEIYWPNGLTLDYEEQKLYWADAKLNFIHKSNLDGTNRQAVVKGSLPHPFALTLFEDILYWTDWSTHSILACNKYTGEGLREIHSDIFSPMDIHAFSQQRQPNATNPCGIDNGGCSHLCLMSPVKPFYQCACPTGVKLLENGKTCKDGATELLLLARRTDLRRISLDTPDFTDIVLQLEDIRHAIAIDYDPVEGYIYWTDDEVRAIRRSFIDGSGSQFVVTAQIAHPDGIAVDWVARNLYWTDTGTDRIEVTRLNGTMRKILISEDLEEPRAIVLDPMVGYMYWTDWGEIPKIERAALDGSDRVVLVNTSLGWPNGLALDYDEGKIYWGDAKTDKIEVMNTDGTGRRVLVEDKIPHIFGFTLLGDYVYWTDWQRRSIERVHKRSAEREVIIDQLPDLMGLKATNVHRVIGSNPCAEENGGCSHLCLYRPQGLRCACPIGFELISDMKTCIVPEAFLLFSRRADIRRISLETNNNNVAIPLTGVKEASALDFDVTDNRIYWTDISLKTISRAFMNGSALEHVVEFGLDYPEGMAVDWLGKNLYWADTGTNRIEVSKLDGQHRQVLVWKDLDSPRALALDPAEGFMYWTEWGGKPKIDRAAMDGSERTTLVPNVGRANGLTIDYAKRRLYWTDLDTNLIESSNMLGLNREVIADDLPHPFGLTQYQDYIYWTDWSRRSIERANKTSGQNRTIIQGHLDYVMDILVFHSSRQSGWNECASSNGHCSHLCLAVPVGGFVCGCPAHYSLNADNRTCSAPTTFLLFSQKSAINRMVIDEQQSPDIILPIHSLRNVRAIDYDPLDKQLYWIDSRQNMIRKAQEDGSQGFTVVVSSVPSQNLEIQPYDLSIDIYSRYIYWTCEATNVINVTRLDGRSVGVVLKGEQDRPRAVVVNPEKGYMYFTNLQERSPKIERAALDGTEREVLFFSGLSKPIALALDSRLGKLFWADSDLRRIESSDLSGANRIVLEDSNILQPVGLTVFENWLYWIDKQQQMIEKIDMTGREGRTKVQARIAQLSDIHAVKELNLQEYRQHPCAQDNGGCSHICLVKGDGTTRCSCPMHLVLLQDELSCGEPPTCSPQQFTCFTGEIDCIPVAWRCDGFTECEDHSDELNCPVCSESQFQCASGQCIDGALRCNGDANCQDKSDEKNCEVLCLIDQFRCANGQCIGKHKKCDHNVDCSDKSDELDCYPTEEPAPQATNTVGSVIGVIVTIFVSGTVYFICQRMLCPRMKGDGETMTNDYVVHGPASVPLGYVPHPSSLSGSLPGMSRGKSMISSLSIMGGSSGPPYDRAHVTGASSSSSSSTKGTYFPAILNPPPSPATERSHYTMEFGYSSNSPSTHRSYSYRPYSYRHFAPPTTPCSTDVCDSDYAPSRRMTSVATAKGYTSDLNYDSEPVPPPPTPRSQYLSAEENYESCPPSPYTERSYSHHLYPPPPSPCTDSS

B1: Mesd: Recombinant full-length mouse Mesd expressed in E. coli, N-terminal polyhistidine tail, lacking the signal peptide (protein)
chain: ADTPGEATPPPRKKKDIRDYNDADMARLLEQWEKDDDIEEGDLPEHKRPSAPIDFSKLDPGKPESILKMTKKGKTLMMFVTVSGNPTEKETEEITSLWQGSLFNANYDVQRFIVGSDRAIFMLRDGSYAWEIKDFLVSQDRCAEVTLEGQMYPGKGGGSKEKNKTKPEKAKKKEGDRKPRASKEDNRAGSRREDL
modifications: left off: small tags and cut ends
notes: Recombinant full-length mouse Mesd expressed in E. coli, N-terminal polyhistidine tail, lacking the signal peptide
- Inhibition of 125I-Mesd binding to cell surface LRP6 (LRP6 [1]; 500 nM unlabeled competitor, 125I-Mesd 5 nM, 2 hours at 4° C.): > 90%
- Effect of excess unlabeled protein on 125I-Mesd binding (LRP6 [1]; 500 nM unlabeled, 125I-Mesd 5 nM, 4° C.): completely eliminated this binding
- Reduction of binding of 125I-Mesd to LRP6 (LRP6 [1]; FIG. 10C, compared with LRP5): even greater reduction
- Binding of Myc-DKK1 to LRP6 at the cell surface (LRP6 [2]): completely blocked
- Effect on increased 125I-DKK1 binding of LRP6-expressing HT1080 cells (LRP6 [3]): abolished
